The text below walks through data of paper PMC2671406 (PLoS ONE, 2009).

Common to all, as to details: both partners purified
In experiment [1] the target is T1, Human (vertebrate) calmodulin (human, UniProt P0DP23 1-149).
T1 construct: also called CaM
Description: ITC; CaM (0.1 mM) in the cell, CnA-CBD peptide (1 mM) in the syringe, 5 µl injections; +35°C; 10 mM HEPES pH 7.5, 100 mM NaCl, 10 mM CaCl2. (In ITC the heat of successive injections is recorded.)

Experiment [2] deals with T1, Human (vertebrate) calmodulin. Description: SEC; CaM (200 µl at 176 µM) on Superdex 75 HR 10/30 with and without excess (625 µM) CnA-CBD peptide; 50 mM HEPES pH 7.5, 150 mM NaCl, 4 mM CaCl2. For orientation: In gel filtration, larger molecules generally elute earlier.
The target is the same in experiment [3]. Kind of experiment: ITC; CaM (0.1 mM) in the cell, CnA-CBD peptide (1 mM) in the syringe, 5 µl injections; +30°C; 10 mM HEPES pH 7.5, 100 mM NaCl, 10 mM CaCl2.

B1: Peptide corresponding to the CaM binding domain of calcineurin A (residues 395-411) (peptide)
peptide: VIRNKIRAIGKMARVFS
notes: also called CnA-CBD; CnA-CBD peptide; source: bought: GL Biochem (Shanghai, China)
The term Kd denotes the free concentration of one partner at which half of the binding sites on the other are occupied at equilibrium, for simple one-to-one binding. As a reminder, the stoichiometry N is the number of molecules, sites or subunits per partner or assembly. B1: in experiment [1], the Ka turned out to be 1.4e+06 M⁻¹, the Kd was found to be 700 nM and the dH is -5.7 kcal/mol. For the same molecule, the “stoichiometry N” value in experiment [2] is 1. Further, in experiment [3], the Ka worked out at 3.5e+06 M⁻¹, the Kd was found to be 300 nM and the dH is -1.8 kcal/mol.
